Tests used:
[1] = target: T1, type 1 IGF receptor (IGF-1R) (human, UniProt P08069 31-1367); test: competition binding to IGF receptors against radioactive wild type IGF
T1 construct: whole, on cells; also called IGF-1 receptor; CD221
Experimental: 200 ul of each of these was mixed rapidly with 1.8 ml of refold buffer. Refold buffer was 1.4 M urea, 100 mM glycine, 0.5 M NaCl, 19% ethanol, 0.5 mM GSSG, 4 mM GSH, pH 9.5.

[2] = target: dihydrofolate reductase; test: cell-based or functional assay

T1 sequence (P08069 31-1367): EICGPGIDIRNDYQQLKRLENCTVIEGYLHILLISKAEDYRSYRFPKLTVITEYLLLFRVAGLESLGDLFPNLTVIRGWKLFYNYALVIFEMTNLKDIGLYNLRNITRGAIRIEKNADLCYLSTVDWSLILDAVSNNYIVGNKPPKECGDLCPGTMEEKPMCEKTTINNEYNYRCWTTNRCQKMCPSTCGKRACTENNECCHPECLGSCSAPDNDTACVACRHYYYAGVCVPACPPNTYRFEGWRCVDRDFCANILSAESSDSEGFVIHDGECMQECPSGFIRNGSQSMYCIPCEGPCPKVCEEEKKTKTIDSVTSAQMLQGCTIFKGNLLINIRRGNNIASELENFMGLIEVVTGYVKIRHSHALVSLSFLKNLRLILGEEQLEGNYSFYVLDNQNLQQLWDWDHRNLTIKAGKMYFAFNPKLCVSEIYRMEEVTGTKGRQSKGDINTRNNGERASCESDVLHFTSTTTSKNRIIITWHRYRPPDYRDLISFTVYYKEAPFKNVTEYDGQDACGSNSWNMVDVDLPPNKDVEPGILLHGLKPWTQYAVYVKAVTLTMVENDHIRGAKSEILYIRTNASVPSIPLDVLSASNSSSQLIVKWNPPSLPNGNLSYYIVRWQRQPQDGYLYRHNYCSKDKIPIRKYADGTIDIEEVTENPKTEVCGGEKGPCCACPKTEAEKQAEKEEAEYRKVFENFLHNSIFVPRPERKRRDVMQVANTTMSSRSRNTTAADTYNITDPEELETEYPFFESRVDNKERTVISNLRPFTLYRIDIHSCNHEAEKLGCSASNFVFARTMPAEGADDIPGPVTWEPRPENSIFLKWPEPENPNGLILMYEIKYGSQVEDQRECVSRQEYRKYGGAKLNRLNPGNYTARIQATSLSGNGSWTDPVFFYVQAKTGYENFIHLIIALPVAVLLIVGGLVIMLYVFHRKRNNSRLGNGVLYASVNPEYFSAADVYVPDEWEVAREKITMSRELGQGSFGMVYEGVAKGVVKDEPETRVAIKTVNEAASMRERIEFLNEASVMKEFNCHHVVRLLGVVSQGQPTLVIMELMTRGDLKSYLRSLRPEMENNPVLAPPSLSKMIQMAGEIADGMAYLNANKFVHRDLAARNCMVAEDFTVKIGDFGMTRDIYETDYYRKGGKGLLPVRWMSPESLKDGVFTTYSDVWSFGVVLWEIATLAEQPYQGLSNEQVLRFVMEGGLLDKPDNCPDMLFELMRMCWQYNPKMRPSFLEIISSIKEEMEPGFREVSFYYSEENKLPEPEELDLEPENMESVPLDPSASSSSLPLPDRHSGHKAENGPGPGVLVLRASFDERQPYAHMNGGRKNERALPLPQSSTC

Kd [1] [nM]	IC50 (inhibition of dihydrofolate reductase activity) [2] [nEq/L]	Binder
~40		785IGF (ligand, also called mutTrx-IGF132) MVKQIESKTAFQEALDAAGDKLVVVDFSATWCGHCKMIKPFFHSLSEKYSNVIFLEVDVDDSQDVASESEVKSMPTFQFFKKGQKVGEFSGANKEKLEATINELVGSKSGHHHHHHSAKGFVNQHLCGSHLVEALYLVCGDRGFYFNKPTGYGSSSRRAPQTGIVDECCFRSCDLRRLEMYCAPLKPAKSA
	99	LR3IGF-MTX (ligand, methotrexate on amino groups (3 lysine side chains and the N-terminal amino group available), MTX:protein ratio of 2.8) MFPAMPLSSLFVNGPRTLCGALVDALQFVCGDRGFYFNKPTGYGSSSRRAPQTGIVDECCFRSCDLRRLEMYCAPLKPAKSEA
~2		403IGF (ligand, T0001 describes it as His6-IGF; also called His6-IGF) MTSGHHHHHHSAGVNGFVNQHLCGSHLVEALYLVCGDRGFYFNKPTGYGSSSRRAPQTGIVDECCFRSCDLRRLEMYCAPLKPAKSA
~100		764IGF (ligand, also called His6-K5-IGF132) MVKGKHHHHHHNGKGKSKFVNQHLCGSHLVEALYLVCGDRGFYFNKPTGYGSSSRRAPQTGIVDECCFRSCDLRRLEMYCAPLKPAKSA
